According to IntAct's records for PubMed 8940095:

Biological target: pdli5_rat Pdlim5 (UniProt Q62920)
Sequence (Q62920 whole entry): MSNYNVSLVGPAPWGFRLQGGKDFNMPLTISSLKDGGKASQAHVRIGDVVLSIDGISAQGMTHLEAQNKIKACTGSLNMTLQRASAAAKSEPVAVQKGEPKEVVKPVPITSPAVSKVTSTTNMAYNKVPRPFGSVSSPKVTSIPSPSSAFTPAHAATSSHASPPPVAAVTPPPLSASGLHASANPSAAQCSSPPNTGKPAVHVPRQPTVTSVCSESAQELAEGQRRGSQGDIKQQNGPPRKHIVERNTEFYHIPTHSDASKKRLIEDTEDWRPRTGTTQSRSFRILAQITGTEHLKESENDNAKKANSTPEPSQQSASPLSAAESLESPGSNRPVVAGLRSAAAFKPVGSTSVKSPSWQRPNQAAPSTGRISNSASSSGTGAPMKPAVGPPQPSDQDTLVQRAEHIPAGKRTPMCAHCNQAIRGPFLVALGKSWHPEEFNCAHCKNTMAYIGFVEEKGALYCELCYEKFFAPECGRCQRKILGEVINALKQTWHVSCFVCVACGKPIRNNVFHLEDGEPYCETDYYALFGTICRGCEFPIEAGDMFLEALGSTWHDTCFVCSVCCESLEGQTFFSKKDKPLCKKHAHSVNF

Protein kinase C beta type (Rattus norvegicus (Rat)), P68403-1 K371M, sequence (P68403 whole entry K371M): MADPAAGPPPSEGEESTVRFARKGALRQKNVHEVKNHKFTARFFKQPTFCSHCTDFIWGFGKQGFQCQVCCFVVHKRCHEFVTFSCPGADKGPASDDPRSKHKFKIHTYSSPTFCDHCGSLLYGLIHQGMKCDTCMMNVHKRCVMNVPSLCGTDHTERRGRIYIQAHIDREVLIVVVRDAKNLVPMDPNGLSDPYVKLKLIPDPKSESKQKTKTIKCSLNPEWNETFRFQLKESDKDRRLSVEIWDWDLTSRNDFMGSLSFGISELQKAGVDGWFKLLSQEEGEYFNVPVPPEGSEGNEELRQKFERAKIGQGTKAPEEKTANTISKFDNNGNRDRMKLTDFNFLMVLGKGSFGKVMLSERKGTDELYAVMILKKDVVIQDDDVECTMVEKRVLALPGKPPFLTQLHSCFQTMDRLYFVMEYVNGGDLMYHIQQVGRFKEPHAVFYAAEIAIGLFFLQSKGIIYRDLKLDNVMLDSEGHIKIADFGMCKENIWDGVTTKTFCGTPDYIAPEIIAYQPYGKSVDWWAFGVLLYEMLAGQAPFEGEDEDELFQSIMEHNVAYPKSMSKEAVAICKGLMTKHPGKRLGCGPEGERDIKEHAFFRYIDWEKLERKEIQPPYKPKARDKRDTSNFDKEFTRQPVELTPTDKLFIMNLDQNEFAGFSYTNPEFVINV

Protein kinase C beta type (Rattus norvegicus (Rat)), P68403-1 K371M
effect of a mutation on the interaction: with no effect
